Patent US20260152567A1 (CSPC MEGALITH BIOPHARMACEUTICAL, published 2026)
Numbering of substitutions follows the chain as printed.

T1: human CD73 on the cell surface (MDA-MB-231 and SKOV3 tumor cells) (human, UniProt P21589 27-549)
T1 sequence (looked up): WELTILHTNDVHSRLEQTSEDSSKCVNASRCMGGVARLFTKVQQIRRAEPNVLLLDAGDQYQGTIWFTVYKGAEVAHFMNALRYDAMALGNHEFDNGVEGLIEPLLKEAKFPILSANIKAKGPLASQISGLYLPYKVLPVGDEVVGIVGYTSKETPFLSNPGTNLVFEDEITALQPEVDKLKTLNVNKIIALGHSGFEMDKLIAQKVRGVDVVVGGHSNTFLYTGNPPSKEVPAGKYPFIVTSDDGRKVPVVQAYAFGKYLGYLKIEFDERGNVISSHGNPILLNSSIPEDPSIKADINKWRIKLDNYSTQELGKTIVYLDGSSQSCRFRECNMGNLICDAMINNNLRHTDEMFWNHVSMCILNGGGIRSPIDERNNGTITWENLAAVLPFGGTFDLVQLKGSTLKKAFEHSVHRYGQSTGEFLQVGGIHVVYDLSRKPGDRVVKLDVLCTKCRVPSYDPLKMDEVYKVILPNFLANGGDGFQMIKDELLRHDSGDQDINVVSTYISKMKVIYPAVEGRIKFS

T2: recombinant human CD73 protein (human, UniProt P21589 27-547)
T2 sequence (looked up): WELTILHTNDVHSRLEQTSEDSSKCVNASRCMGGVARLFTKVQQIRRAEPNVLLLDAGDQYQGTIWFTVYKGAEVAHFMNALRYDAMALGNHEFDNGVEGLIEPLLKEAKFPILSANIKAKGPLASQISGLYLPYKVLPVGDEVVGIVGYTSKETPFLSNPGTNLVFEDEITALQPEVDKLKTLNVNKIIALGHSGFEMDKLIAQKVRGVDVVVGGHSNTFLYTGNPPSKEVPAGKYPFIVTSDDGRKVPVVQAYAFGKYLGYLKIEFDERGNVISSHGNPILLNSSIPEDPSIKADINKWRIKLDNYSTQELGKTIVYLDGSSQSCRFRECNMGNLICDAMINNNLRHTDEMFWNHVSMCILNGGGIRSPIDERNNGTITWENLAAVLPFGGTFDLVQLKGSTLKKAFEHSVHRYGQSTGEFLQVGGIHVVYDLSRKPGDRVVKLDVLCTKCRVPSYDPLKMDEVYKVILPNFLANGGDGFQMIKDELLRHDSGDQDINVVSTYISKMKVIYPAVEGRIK

T3: cynomolgus monkey full-length CD73 on CHO-K1 cells (cynomolgus monkey, UniProt A0A2K5V5U7 27-549)
T3 construct: whole, on cells; also called monkey CD73 protein expressed on cells; cynomolgus monkey CD73 on cell surface
T3 sequence: T1 sequence (looked up) with M199T, T350A, V466I

B1: Hab1F2F9.15 (antibody, human IgG1, kappa, L234A L235A, V domains shown)
VH: QVQLVQSGAEVKKPGASVKVSCKASGYTFTSYWMHWVRQAPGQRLEWMGNINPSNGGTKYSQKFQGRVTITVDTSASTAYMELSSLRSEDTAVYYCARRDYGSPSYWGQGTTVTVSS
VL: DIQMTQSPSSLSASVGDRVTITCKASQDINSYLTWFQQKPGKAPKSLIYRTNILLDGVPSRFSGSGSGTDYTLTISSLQPEDFATYYCLQYHEFPVTFGGGTKLEIKR
notes: Humanized 1F2F9; also called Huab1F2F9.15; HuablF2F9.15
B2: Hab7C3C2.5 (antibody, human IgG1, kappa, L234A L235A, V domains shown)
VH: QVQLVQSGAEVKKPGASVKVSCKASGYTFTSYDINWVRQATGQGLEWIGWIYPRDGFTKYNEKFKGRVTLTVNTSISTAYMELSSLRSEDTAVYYCARKEGYRGDWYFDVWGQGTTVTVSS
VL: DIQMTQSPSSLSASVGDRVTITCRASGNVHNYLAWYQQKPGKAPKLLLYNAKTLASGVPSRFSGSGSGTDYTLTISSLQPEDFATYYCQHFWSTPWTFGGGTELEIKR
notes: Humanized 7C3C2; also called Hab7C3C.5

Columns and labels:
[1] = biological target: T1, human CD73 on the cell surface …; assay: cell-based or functional assay
[2] = biological target: T1, human CD73 on the cell surface …; assay: flow cytometry on SK-OV-3 cells
Protocol: In this example, the exemplary antibodies of the present application were compared with anti-CD73 antibodies described in other patent applications. Antibodies MEDI9447 and Hu101-28 (with CDR sequences from PCT patent applications WO 2016/075099 and WO 2018/137598, respectively) were cloned into eukaryotic expression vectors containing the hIgG1-kappa constant region. The binding ability of the humanized antibodies Hab7C3C2.5 and Hab1F2F9.15 to cell surface CD73 was assessed using tumor cell lines MDA-MB-231 and SKOV3 which endogenously express human CD73 on the cell surface. The cells were seeded in a 96-well plate at a density of 2×10⁶ cells/mL, with 100 μL per well. 4-fold gradient dilutions (0-100 nM) of the antibodies were added, and the mixture was incubated at 4° C. for 1 h. A goat anti-human secondary antibody was added, and the mixture was incubated at 4° C. in the dark for 50 min for labeling. The fluorescence intensity of the cells was then measured by a flow cytometer.

[3] = biological target: T2, recombinant human CD73 protein; assay: cell-based or functional assay
[4] = biological target: T3, cynomolgus monkey full-length CD73 on …; assay: flow cytometry on CHO-K1 cells expressing monkey full-length CD73
Protocol: In order to characterize the ability of the humanized antibodies prepared in the present application to recognize the cynomolgus monkey CD73 molecule on the cell membrane, CHO-K1 cells capable of stably expressing monkey full-length CD73 were constructed. The cells were seeded in a 96-well plate at a density of 2×10⁶ cells/mL, with 100 μL per well. The plate was washed three times with a PBS buffer, and the supernatant was discarded. The antibodies diluted in a gradient with a PBS buffer were added, and the mixture was incubated at 4° C. for 1 h. The cells were washed 3 times with a PBS buffer, followed by labeling with Alexa Fluor 488-labeled goat anti-human IgG antibody at 4° C. in the dark for 50 min. The cells were then washed 3 times with a PBS buffer, and the fluorescence intensity of the cells was read by a flow cytometer.
As shown in the results in FIG. 5 and Table 10, the prepared humanized antibodies could bind to the monkey CD73 protein expressed on cells in a dose-dependent manner.

[5] = biological target: T2, recombinant human CD73 protein; assay: ELISA, plate coated with recombinant CD73 protein at 1 µg/mL
Protocol: The affinity of the humanized antibodies to the recombinant CD73 protein was determined using an ELISA method. A elisa plate was coated with the CD73 protein at a concentration of 1 μg/mL. 5-fold gradient dilutions (0-66.7 nM) of the test antibodies were added.

Binder	Cellular enzymatic activity inhibition IC50 [1]	EC50 [2]	Protein enzymatic activity inhibition IC50 [3]	EC50 [4]	EC50 [5]
B1	0.069 nM	0.19 nM	0.011 nM	1.51 nM	0.011 nM
B2	0.027 nM	0.07 nM	0.018 nM	11.3 nM	0.013 nM
